Results as given in article PMC7261175, “A splice site-sensing conformational switch in U2AF2 is modulated by U2AF1 and its recurrent myelodysplasia-associated mutation” (Nucleic Acids Research, 2019).

Legend:
His6SumoMBP-U2AF1;U2AF2 = His6SumoMBP-U2AF1;U2AF2 (human;human, UniProt Q01081;P26368-2 1-188;85-471, C67S|); experiment: fluorescence anisotropy; Anisotropy: 150 mM NaCl, 25 mM HEPES pH 6.8, 0.5 mM TCEP, 3% glycerol, 20 uM ZnCl2, 0.2 U/ul SUPERase-In; smFRET: 25 mM HEPES pH 7.0, 150 mM KCl, 0.01% octaethylene glycol monododecyl ether, 0.2 mM TCEP, 6 mM BME, 1.5 mM Trolox, oxygen scavenger, room temperature, excess U2AF1 (1000 nM) with heterodimer; details: protein: recombinant;recombinant; tags: N-terminal His6-SUMO-MBP with AAA linker; C-terminal extra Ala;GST cleaved by PreScission; copies: 1;1; label: 5'-fluorescein
Sequence of His6SumoMBP-U2AF1;U2AF2 (Q01081 1-188 C67S, chain 1 of 2): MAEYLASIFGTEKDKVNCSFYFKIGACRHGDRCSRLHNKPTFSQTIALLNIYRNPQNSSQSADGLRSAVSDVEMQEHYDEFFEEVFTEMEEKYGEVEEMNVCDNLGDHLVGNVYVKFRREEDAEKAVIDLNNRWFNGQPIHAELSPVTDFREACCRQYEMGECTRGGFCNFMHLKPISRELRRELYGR
Sequence of His6SumoMBP-U2AF1;U2AF2 (P26368 other isoform, or with tags, fused parts or gaps C67S|, chain 2 of 2): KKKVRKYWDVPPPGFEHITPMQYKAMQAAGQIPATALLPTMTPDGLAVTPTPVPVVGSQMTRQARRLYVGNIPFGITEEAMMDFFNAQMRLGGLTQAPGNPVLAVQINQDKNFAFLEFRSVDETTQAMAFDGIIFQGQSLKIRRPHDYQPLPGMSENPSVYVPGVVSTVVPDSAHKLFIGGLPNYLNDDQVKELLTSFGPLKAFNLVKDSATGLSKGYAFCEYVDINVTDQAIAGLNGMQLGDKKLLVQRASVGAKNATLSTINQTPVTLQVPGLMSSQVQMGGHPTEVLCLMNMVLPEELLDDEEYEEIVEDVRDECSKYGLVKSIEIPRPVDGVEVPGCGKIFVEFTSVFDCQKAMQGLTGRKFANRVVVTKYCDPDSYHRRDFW

U2AF1 untagged;U2AF2 = U2AF1 untagged;U2AF2 (human;human, UniProt Q01081;P26368-2 1-193;85-471, |); experiment: fluorescence anisotropy; Kd in figure only; tag has no significant influence; Anisotropy: 150 mM NaCl, 25 mM HEPES pH 6.8, 0.5 mM TCEP, 3% glycerol, 20 uM ZnCl2, 0.2 U/ul SUPERase-In; smFRET: 25 mM HEPES pH 7.0, 150 mM KCl, 0.01% octaethylene glycol monododecyl ether, 0.2 mM TCEP, 6 mM BME, 1.5 mM Trolox, oxygen scavenger, room temperature, excess U2AF1 (1000 nM) with heterodimer; details: protein: recombinant;recombinant; tags: MBP cleaved by TEV; GSGGGGS linker remains;GST cleaved by PreScission; copies: 1;1; label: 5'-fluorescein
Sequence of U2AF1 untagged;U2AF2 (Q01081 1-193, chain 1 of 2): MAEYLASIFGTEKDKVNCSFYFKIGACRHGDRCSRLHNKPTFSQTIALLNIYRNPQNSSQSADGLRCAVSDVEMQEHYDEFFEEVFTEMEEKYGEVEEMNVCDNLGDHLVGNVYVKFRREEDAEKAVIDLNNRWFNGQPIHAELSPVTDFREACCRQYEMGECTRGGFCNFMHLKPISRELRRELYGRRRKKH
Sequence of U2AF1 untagged;U2AF2 (P26368 other isoform, or with tags, fused parts or gaps |, chain 2 of 2): as the sequence (P26368 other isoform, or with tags, fused parts or gaps C67S|, chain 2 of 2) above

U2AF1 UHM (dZn);U2AF2 = U2AF1 UHM (dZn);U2AF2 (human;human, UniProt Q01081;P26368-2 43-146;85-471, C67S|); experiment: fluorescence anisotropy; Kd shown in figure only; Anisotropy: 150 mM NaCl, 25 mM HEPES pH 6.8, 0.5 mM TCEP, 3% glycerol, 20 uM ZnCl2, 0.2 U/ul SUPERase-In; smFRET: 25 mM HEPES pH 7.0, 150 mM KCl, 0.01% octaethylene glycol monododecyl ether, 0.2 mM TCEP, 6 mM BME, 1.5 mM Trolox, oxygen scavenger, room temperature, excess U2AF1 (1000 nM) with heterodimer; details: protein: recombinant;recombinant; tags: GST cleaved by TEV;GST cleaved by PreScission; copies: 1;1; label: 5'-fluorescein
Sequence of U2AF1 UHM (dZn);U2AF2 (Q01081 43-146 C67S, chain 1 of 2): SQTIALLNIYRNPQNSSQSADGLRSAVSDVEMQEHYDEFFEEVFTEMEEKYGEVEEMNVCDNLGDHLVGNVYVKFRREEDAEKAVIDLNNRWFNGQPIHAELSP
Sequence of U2AF1 UHM (dZn);U2AF2 (P26368 other isoform, or with tags, fused parts or gaps C67S|, chain 2 of 2): as the sequence (P26368 other isoform, or with tags, fused parts or gaps C67S|, chain 2 of 2) above

[1] = molecular target: T1, His6SumoMBP-U2AF1 S34F;U2AF2 Cy3/Cy5 (human;human, UniProt Q01081;P26368-2 1-188;85-342, S34F;C67S|A181C;C305A;Q324C); experiment: smFRET; RNA tethered; slightly more open than DEK(-3U); Anisotropy: 150 mM NaCl, 25 mM HEPES pH 6.8, 0.5 mM TCEP, 3% glycerol, 20 uM ZnCl2, 0.2 U/ul SUPERase-In; smFRET: 25 mM HEPES pH 7.0, 150 mM KCl, 0.01% octaethylene glycol monododecyl ether, 0.2 mM TCEP, 6 mM BME, 1.5 mM Trolox, oxygen scavenger, room temperature, excess U2AF1 (1000 nM) with heterodimer; details: protein: recombinant;recombinant; tags: N-terminal His6-SUMO-MBP with AAA linker; C-terminal extra Ala;GST cleaved; Cy3/Cy5 on C181 and C324; copies: 1;1; label: biotin on annealed DNA
T1 sequence (Q01081 1-188 S34F/C67S, chain 1 of 2): as the sequence (Q01081 1-188 C67S, chain 1 of 2) above, with S34F counted along it
T1 sequence (P26368 85-342 A181C/C305A/Q324C, chain 2 of 2): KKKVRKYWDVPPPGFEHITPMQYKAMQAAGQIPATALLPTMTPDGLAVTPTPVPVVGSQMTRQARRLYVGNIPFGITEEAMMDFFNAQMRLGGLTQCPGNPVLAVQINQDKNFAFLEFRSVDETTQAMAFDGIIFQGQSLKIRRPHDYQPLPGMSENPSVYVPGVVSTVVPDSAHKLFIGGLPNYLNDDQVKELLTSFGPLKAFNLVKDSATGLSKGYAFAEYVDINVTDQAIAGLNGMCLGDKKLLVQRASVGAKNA

[2] = molecular target: T2, His6SumoMBP-U2AF1;U2AF2 Cy3/Cy5 (human;human, UniProt Q01081;P26368-2 1-188;85-342, C67S|A181C;C305A;Q324C); experiment: smFRET; RNA tethered; more open than DEK(-3U); Anisotropy: 150 mM NaCl, 25 mM HEPES pH 6.8, 0.5 mM TCEP, 3% glycerol, 20 uM ZnCl2, 0.2 U/ul SUPERase-In; smFRET: 25 mM HEPES pH 7.0, 150 mM KCl, 0.01% octaethylene glycol monododecyl ether, 0.2 mM TCEP, 6 mM BME, 1.5 mM Trolox, oxygen scavenger, room temperature, excess U2AF1 (1000 nM) with heterodimer; details: protein: recombinant;recombinant; tags: N-terminal His6-SUMO-MBP with AAA linker; C-terminal extra Ala;GST cleaved; Cy3/Cy5 on C181 and C324; copies: 1;1; label: biotin on annealed DNA
T2 sequence (Q01081 1-188 C67S, chain 1 of 2): as the sequence (Q01081 1-188 C67S, chain 1 of 2) above
T2 sequence (P26368 85-342 A181C/C305A/Q324C, chain 2 of 2): as the sequence (P26368 85-342 A181C/C305A/Q324C, chain 2 of 2) above

[3] = molecular target: U2AF2 Cy3/Cy5 isolated subunit (human, UniProt P26368-2 113-342, A181C;C305A;Q324C); experiment: smFRET; RNA tethered; preferentially open; Anisotropy: 150 mM NaCl, 25 mM HEPES pH 6.8, 0.5 mM TCEP, 3% glycerol, 20 uM ZnCl2, 0.2 U/ul SUPERase-In; smFRET: 25 mM HEPES pH 7.0, 150 mM KCl, 0.01% octaethylene glycol monododecyl ether, 0.2 mM TCEP, 6 mM BME, 1.5 mM Trolox, oxygen scavenger, room temperature, excess U2AF1 (1000 nM) with heterodimer; details: protein: recombinant, tags: His6 and T7 tags, label: biotin on annealed DNA
Sequence of U2AF2 Cy3/Cy5 isolated subunit (P26368 113-342 A181C/C305A/Q324C): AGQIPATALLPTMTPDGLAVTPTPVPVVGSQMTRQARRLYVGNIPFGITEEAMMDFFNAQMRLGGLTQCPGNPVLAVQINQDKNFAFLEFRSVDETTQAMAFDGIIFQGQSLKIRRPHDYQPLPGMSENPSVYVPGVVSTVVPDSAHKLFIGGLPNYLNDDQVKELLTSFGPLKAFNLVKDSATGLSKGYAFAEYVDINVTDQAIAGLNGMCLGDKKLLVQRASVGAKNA

[4] = molecular target: T2, His6SumoMBP-U2AF1;U2AF2 Cy3/Cy5; experiment: smFRET; RNA tethered; open 0.4 FRET; Anisotropy: 150 mM NaCl, 25 mM HEPES pH 6.8, 0.5 mM TCEP, 3% glycerol, 20 uM ZnCl2, 0.2 U/ul SUPERase-In; smFRET: 25 mM HEPES pH 7.0, 150 mM KCl, 0.01% octaethylene glycol monododecyl ether, 0.2 mM TCEP, 6 mM BME, 1.5 mM Trolox, oxygen scavenger, room temperature, excess U2AF1 (1000 nM) with heterodimer; details: protein: recombinant;recombinant; tags: N-terminal His6-SUMO-MBP with AAA linker; C-terminal extra Ala;GST cleaved; Cy3/Cy5 on C181 and C324; copies: 1;1; label: biotin on annealed DNA
[5] = molecular target: T1, His6SumoMBP-U2AF1 S34F;U2AF2 Cy3/Cy5; experiment: smFRET; RNA tethered; 25% closed; Anisotropy: 150 mM NaCl, 25 mM HEPES pH 6.8, 0.5 mM TCEP, 3% glycerol, 20 uM ZnCl2, 0.2 U/ul SUPERase-In; smFRET: 25 mM HEPES pH 7.0, 150 mM KCl, 0.01% octaethylene glycol monododecyl ether, 0.2 mM TCEP, 6 mM BME, 1.5 mM Trolox, oxygen scavenger, room temperature, excess U2AF1 (1000 nM) with heterodimer; details: protein: recombinant;recombinant; tags: N-terminal His6-SUMO-MBP with AAA linker; C-terminal extra Ala;GST cleaved; Cy3/Cy5 on C181 and C324; copies: 1;1; label: biotin on annealed DNA
[6] = molecular target: His6SumoMBP-U2AF1;U2AF2 Cy3/Cy5 D215R/G319R (human;human, UniProt Q01081;P26368-2 1-188;85-342, C67S|A181C;D215R;C305A;G319R;Q324C); experiment: smFRET; RNA tethered; about half closed; Anisotropy: 150 mM NaCl, 25 mM HEPES pH 6.8, 0.5 mM TCEP, 3% glycerol, 20 uM ZnCl2, 0.2 U/ul SUPERase-In; smFRET: 25 mM HEPES pH 7.0, 150 mM KCl, 0.01% octaethylene glycol monododecyl ether, 0.2 mM TCEP, 6 mM BME, 1.5 mM Trolox, oxygen scavenger, room temperature, excess U2AF1 (1000 nM) with heterodimer; details: protein: recombinant;recombinant; tags: N-terminal His6-SUMO-MBP with AAA linker; C-terminal extra Ala;GST cleaved; Cy3/Cy5 on C181 and C324; copies: 1;1; label: biotin on annealed DNA
Sequence of His6SumoMBP-U2AF1;U2AF2 Cy3/Cy5 D215R/G319R (Q01081 1-188 C67S, chain 1 of 2): as the sequence (Q01081 1-188 C67S, chain 1 of 2) above
Sequence of His6SumoMBP-U2AF1;U2AF2 Cy3/Cy5 D215R/G319R (P26368 85-342 A181C/D215R/C305A/G319R/Q324C, chain 2 of 2): as the sequence (P26368 85-342 A181C/C305A/Q324C, chain 2 of 2) above, with D131R, G235R counted along it

CUGUCCCUUUUUUUUCACAGCUCGCGGUUGAG (ssRNA) [Fl-AdML]
Kd (His6SumoMBP-U2AF1;U2AF2): 120 ± 15 nM
binding result (U2AF1 untagged;U2AF2): binds
fold weaker binding affinity (Kd ratio) (U2AF1 UHM (dZn);U2AF2): 35 fold weaker than heterodimer with zinc knuckles

UACUAAAUUAAUUUCCAGAAAAGAGU (ssRNA, 3' PEG18-DNA conjugate) [DEK(-3C)]
binding result [1]: binds
binding result [2]: binds
binding result [3]: binds

UCCCUUUUUUUUCCACAGCUCGCGGU (ssRNA, 3' PEG18-DNA conjugate) [AdML tethered]
binding result [4]: binds
binding result [5]: binds
binding result [6]: binds
